Target: Ribulose-5-phosphate epimerase of Leishmania donovani (Leishmania donovani)
Assay: SEC

Q: With “Ribulose-5-phosphate epimerase of Leishmania donovani (enzyme)” as the substance, how does the stoichiometry N read?
A: Its stoichiometry N is 2.

From publication PMC8756792
